Data: patent US20240116985A1, “STAPLED PEPTIDES AND METHODS THEREOF” (priority 2020, published 2024)
Starred links: 1 amine or outer side, 2 acyl side, 3 side chain; linkers in the order of their positions; H or OH if unused. Positions of bridges follow the written chain, without caps; N, C: chain ends. Non-standard residues stand in square brackets, D forms with d. Primed or numbered codes have the meaning given here. *: point of attachment. PyrS2″ = (S)-3-amino-1-((pent-4-en-1-yloxy)carbonyl)pyrrolidine-3-carboxylic acid (stapling residue), C=CCCCOC(=O)N1CC[C@@](N[*:1])(C(=O)[*:2])C1; B5(4) = 2,2-bis(4-pentenyl)glycine = 2-amino-2-(pent-4-en-1-yl)hept-6-enoic acid (stitching residue), C=CCCCC(CCCC=C)(N[*:1])C(=O)[*:2]; B5(5) = 2,2-bis(4-pentenyl)glycine, 2-amino-2-(pent-4-en-1-yl)hept-6-enoic acid (stitching residue), C=CCCCC(CCCC=C)(N[*:1])C(=O)[*:2]; PyrS2 = (S)-3-amino-1-((pent-4-en-1-yloxy)carbonyl)pyrrolidine-3-carboxylic acid, C=CCCCOC(=O)N1CC[C@@](N[*:1])(C(=O)[*:2])C1; B5(7) = 2-amino-2-(pent-4-en-1-yl)hept-6-enoic acid, two olefinic side chains, C=CCCCC(CCCC=C)(N[*:1])C(=O)[*:2]; B5(25) = 2-amino-2-(pent-4-en-1-yl)hept-6-enoic acid (stitching residue), C=CCCCC(CCCC=C)(N[*:1])C(=O)[*:2]; MorphAsn = (S)-2-amino-4-morpholino-4-oxobutanoic acid, O=C(C[C@H](N[*:1])C(=O)[*:2])N1CCOCC1; B5(3) = 2,2-bis(4-pentenyl)glycine (stitching residue), C=CCCCC(CCCC=C)(N[*:1])C(=O)[*:2]; R6 = (R)-2-amino-2-methyloct-7-enoic acid, C=CCCCC[C@@](C)(N[*:1])C(=O)[*:2]; R4 = (R)-2-amino-2-methylhex-5-enoic acid, C=CCC[C@@](C)(N[*:1])C(=O)[*:2]; Phe(3-CF3) = N[C@@H](Cc1cccc(C(F)(F)F)c1)C(=O)O; Phe(2-CF3) = N[C@@H](Cc1ccccc1C(F)(F)F)C(=O)O; Phe(2-Cl) = N[C@@H](Cc1ccccc1Cl)C(=O)O; dαMeGly(allyl) = C=CC[C@@](C)(N)C(=O)O; Bta = N[C@@H](Cc1csc2ccccc12)C(=O)O; Lys(iPr) = CC(C)NCCCC[C@H](N)C(=O)O; αAllylPro = C=CC[C@@]1(C(=O)O)CCCN1; Morpholinoacetyl = O=C(CN1CCOCC1)*; tBuAla = CC(C)(C)C[C@H](N)C(=O)O; 3Thi = N[C@@H](Cc1ccsc1)C(=O)O; Cha = N[C@@H](CC1CCCCC1)C(=O)O; Leu(ol) = CC(C)C[C@H](N)CO; Me2Npr = not defined here; Alaol = C[C@@H](CO)N*; Ms = CS(=O)(=O)*

B1: I-2520 (peptide)
peptide: Ac-[αAllylPro]D[tBuAla][B5(4)]DXQAFL[PyrS2][Phe(2-CF3)][Bta]A-NH2
modifications: staple 1-4, 4-11; not fully specified (residue 6); printed as Ac-PL3-Asp-Npg-B5-Asp-[CH2CChCO2H]TriAzDap-Gln-Ala-Phe-Leu-PyrS2-2F3MeF-BztA-Ala-NH2
B2: I-2523 (peptide)
peptide: Ac-[αAllylPro]N[Cha][B5(4)]DQKAFL[PyrS2]F[Bta][MorphAsn]-NH2
modifications: staple 1-4, 4-11; not fully specified (residue 7); printed as Ac-PL3-Asn-Cha-B5-Asp-Gln-[Phc]Lys-Ala-Phe-Leu-PyrS2-Phe-BztA-MorphAsn-NH2
B3: I-1073 (peptide)
peptide: Ac-[αAllylPro]D[tBuAla][B5(3)]DEAAFL[PyrS2″]F[Bta]Q-NH2
modifications: staple 1-4, 4-11; not fully specified; printed as Ac-PL3-Asp-Npg-B5-Asp-Glu-Ala-Ala-Phe-Leu-PyrS2-Phe-BztA-Gln-NH2
B4: I-2528 (peptide)
peptide: Ac-[αAllylPro]N[Cha][B5(25)]DQK(Me2Npr)AFL[PyrS2]F[Bta][MorphAsn]-NH2
modifications: staple 1-4, 4-11; reading uncertain; also: printed as Ac-PL3-Asn-Cha-B5-Asp-Gln-[Me2Npr]Lys-Ala-Phe-Leu-PyrS2-Phe-BztA-MorphAsn-NH2
B5: I-2004 (peptide)
peptide: Ac-[αAllylPro]D[tBuAla][B5(4)]NT[Lys(iPr)]AFN[PyrS2″][3Thi][Bta]Q-NH2
modifications: staple 1-4, 4-11; not fully specified; printed as Ac-PL3-Asp-Npg-B5-Asn-Thr-iPrLys-Ala-Phe-Asn-PyrS2-3Thi-BztA-Gln-NH2
B6: I-2005 (peptide)
peptide: Ac-[αAllylPro]D[tBuAla][B5(4)]NT[Lys(iPr)]AFN[PyrS2″][3Thi][Bta]Q-NH2
modifications: staple 1-4, 4-11; not fully specified; printed as Ac-PL3-Asp-Npg-B5-Asn-Thr-iPrLys-Ala-Phe-Asn-PyrS2-3Thi-BztA-Gln-NH2
B7: I-2002 (peptide)
peptide: Ac-[αAllylPro]DA[B5(4)]NTAAFN[PyrS2″][3Thi][Bta]Q-NH2
modifications: staple 1-4, 4-11; not fully specified; printed as Ac-PL3-Asp-Ala-B5-Asn-Thr-Ala-Ala-Phe-Asn-PyrS2-3Thi-BztA-Gln-NH2
B8: I-1991 (peptide)
peptide: Ac-PD[tBuAla][R6]DDAAFL[PyrS2][3Thi][Bta]Q-NH2
modifications: staple 4-11; not fully specified; printed as Ac-Pro-Asp-Npg-R6-Asp-Asp-Ala-Ala-Phe-Leu-PyrS2-3Thi-BztA-Gln-NH2; also: staple -CH=CH- reduced to -CH2-CH2-
B9: I-2003 (peptide)
peptide: Ac-[αAllylPro]DA[B5(4)]NTAAFN[PyrS2″][3Thi][Bta]Q-NH2
modifications: staple 1-4, 4-11; not fully specified; printed as Ac-PL3-Asp-Ala-B5-Asn-Thr-Ala-Ala-Phe-Asn-PyrS2-3Thi-BztA-Gln-NH2
B10: I-1993 (peptide)
peptide: Ac-PD[tBuAla][dαMeGly(allyl)]DDAAFL[PyrS2][3Thi][Bta]Q-NH2
modifications: staple 4-11; not fully specified; printed as Ac-Pro-Asp-Npg-R3-Asp-Asp-Ala-Ala-Phe-Leu-PyrS2-3Thi-BztA-Gln-NH2; also: staple -CH=CH- reduced to -CH2-CH2-
B11: I-1992 (peptide)
peptide: Ac-PD[tBuAla][R4]DDAAFL[PyrS2][3Thi][Bta]Q-NH2
modifications: staple 4-11; not fully specified; printed as Ac-Pro-Asp-Npg-R4-Asp-Asp-Ala-Ala-Phe-Leu-PyrS2-3Thi-BztA-Gln-NH2; also: staple -CH=CH- reduced to -CH2-CH2-

Molecular target: full-length beta-Catenin (Uniprot ID P35222) (Homo sapiens (Human)) (UniProt P35222)
Test: fluorescence polarization competition; peptide titrated against 10 nM full-length beta-catenin + 10 nM 5FAM-TCF4(10-53)

IC50 [nM]	Binder
324	Ac-[αAllylPro]D[Cha][B5(4)]DEAAFL[PyrS2″][Phe(2-Cl)][Bta]Q-NH2 (staple 1-4, 4-11; also: earlier-eluting HPLC peak staple isomer composition) [I-1077]
1260	Ac-[αAllylPro]D[tBuAla][B5(3)]DEAAFL[PyrS2″][Phe(2-Cl)][Bta]T-NH2 (staple 1-4, 4-11; also: staple stereoisomer: later eluting HPLC peak) [I-1071]
498	Ac-[αAllylPro]D[tBuAla][B5(3)]DEAAFL[PyrS2″]F[Bta]Q-NH2 (staple 1-4, 4-11; also: staple stereoisomer: later eluting HPLC peak) [I-1074]
198	Ac-[αAllylPro]D[tBuAla][B5(5)]DTAA[Phe(3-CF3)]T[PyrS2″]F[Bta]S-NH2 (staple 1-4, 4-11) [I-1268: Ac-PL3-Asp-Npg-B5-Asp-Thr-Ala-Ala-3F3MeF-Thr-PyrS2-Phe-BztA-Ser-NH2]
27	B1
263	Ac-[αAllylPro]N[Cha][B5(4)]DQK(Morpholinoacetyl)AFL[PyrS2]F[Bta][MorphAsn]-NH2 (staple 1-4, 4-11) [I-2527]
5	Ac-[αAllylPro]D[tBuAla][B5(3)]DDAAFN[PyrS2″][Phe(2-Cl)][Bta]-Alaol (staple 1-4, 4-11) [I-1081]
1730	B2
4290	Ac-[αAllylPro]N[Cha][B5(25)]DQK(CF3CO)AFL[PyrS2]F[Bta][MorphAsn]-NH2 (staple 1-4, 4-11) [I-2525]
352	Ac-[αAllylPro]D[Cha][B5(4)]DEAAFL[PyrS2″][Phe(2-Cl)][Bta]Q-NH2 (staple 1-4, 4-11; also: later-eluting HPLC peak staple isomer composition) [I-1078]
609	Ac-[αAllylPro]N[Cha][B5(25)]DQK(Ms)AFL[PyrS2]F[Bta][MorphAsn]-NH2 (staple 1-4, 4-11) [I-2524]
409	B3
6	Ac-[αAllylPro]D[tBuAla][B5(4)]DDAAFN[PyrS2″][Phe(2-Cl)][Bta][Leu(ol)] (staple 1-4, 4-11) [I-1080]
610	B4
219	Ac-[αAllylPro]N[Cha][B5(4)]DQK(Ac)AFL[PyrS2]F[Bta][MorphAsn]-NH2 (staple 1-4, 4-11) [I-2522]

Molecular target: full-length beta-Catenin (Uniprot ID P35222) (Homo sapiens (Human)) (UniProt P35222)
Test: fluorescence polarization competition; 10 nM full-length beta-catenin + 10 nM 5FAM-TCF4(10-53) probe
Target sequence in this assay (P35222 whole entry): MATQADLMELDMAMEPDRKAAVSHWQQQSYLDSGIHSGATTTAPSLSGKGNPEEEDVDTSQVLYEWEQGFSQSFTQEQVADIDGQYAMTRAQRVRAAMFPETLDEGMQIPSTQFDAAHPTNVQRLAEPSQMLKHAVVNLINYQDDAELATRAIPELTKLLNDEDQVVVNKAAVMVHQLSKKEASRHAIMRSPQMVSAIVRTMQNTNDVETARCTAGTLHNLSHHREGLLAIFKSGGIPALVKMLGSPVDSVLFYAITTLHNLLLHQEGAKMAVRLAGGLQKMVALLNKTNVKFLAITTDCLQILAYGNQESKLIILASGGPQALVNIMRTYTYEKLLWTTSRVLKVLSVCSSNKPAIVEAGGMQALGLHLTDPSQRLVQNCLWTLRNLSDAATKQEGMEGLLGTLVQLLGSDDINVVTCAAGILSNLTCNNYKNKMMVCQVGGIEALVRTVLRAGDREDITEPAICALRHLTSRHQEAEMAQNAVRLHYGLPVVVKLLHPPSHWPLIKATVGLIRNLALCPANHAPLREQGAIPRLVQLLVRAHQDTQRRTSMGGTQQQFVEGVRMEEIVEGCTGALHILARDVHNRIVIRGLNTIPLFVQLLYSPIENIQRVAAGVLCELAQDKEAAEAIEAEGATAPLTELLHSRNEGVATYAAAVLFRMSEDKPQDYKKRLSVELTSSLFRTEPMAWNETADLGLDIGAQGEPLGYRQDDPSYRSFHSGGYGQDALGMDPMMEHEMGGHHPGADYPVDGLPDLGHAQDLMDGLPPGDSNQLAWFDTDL

IC50 [nM]	Binder
227	B5
357	B6
612	B7
397	B8
312	Ac-PD[tBuAla][R6]DDAAFL[PyrS2][3Thi][Bta]Q-NH2 (staple 4-11) [I-1988]
585	Ac-PD[tBuAla][dαMeGly(allyl)]DDAAFL[PyrS2][3Thi][Bta]Q-NH2 (staple 4-11) [I-1990]
1020	B9
728	B10
186	Ac-PD[tBuAla][R4]DDAAFL[PyrS2][3Thi][Bta]Q-NH2 (staple 4-11) [I-1989]
285	Ac-[αAllylPro]D[tBuAla][B5(4)]NTA[Lys(iPr)]FN[PyrS2″][3Thi][Bta]Q-NH2 (staple 1-4, 4-11) [I-2006]
536	B11

Molecular target: full-length beta-Catenin (Uniprot ID P35222) (Homo sapiens (Human)) (UniProt P35222)
Test: fluorescence polarization competition; full-length beta-catenin, competitor 5FAM-TCF4(10-53) probe

EC50 [nM]	Binder
324	Ac-[αAllylPro]D[Cha][B5(4)]DEAAFL[PyrS2″][Phe(2-Cl)][Bta]Q-NH2 (staple 1-4, 4-11; also: earlier-eluting HPLC peak staple isomer composition) [I-1077]
1260	Ac-[αAllylPro]D[tBuAla][B5(3)]DEAAFL[PyrS2″][Phe(2-Cl)][Bta]T-NH2 (staple 1-4, 4-11; also: staple stereoisomer: later eluting HPLC peak) [I-1071]
498	Ac-[αAllylPro]D[tBuAla][B5(3)]DEAAFL[PyrS2″]F[Bta]Q-NH2 (staple 1-4, 4-11; also: staple stereoisomer: later eluting HPLC peak) [I-1074]
5	Ac-[αAllylPro]D[tBuAla][B5(7)]DDAAFQ[PyrS2][3Thi][Bta]Q-NH2 (staple 1-4, 4-11) [I-763]
5	Ac-[αAllylPro]D[tBuAla][B5(3)]DDAAFN[PyrS2″][Phe(2-Cl)][Bta]-Alaol (staple 1-4, 4-11) [I-1081]
352	Ac-[αAllylPro]D[Cha][B5(4)]DEAAFL[PyrS2″][Phe(2-Cl)][Bta]Q-NH2 (staple 1-4, 4-11; also: later-eluting HPLC peak staple isomer composition) [I-1078]
5	Ac-[αAllylPro]D[tBuAla][B5(7)]DDAAFQ[PyrS2][3Thi][Bta]H-NH2 (staple 1-4, 4-11) [I-771]
14	Ac-[αAllylPro]D[tBuAla][B5(7)]DDAAFQ[PyrS2][3Thi][Bta]Q-NH2 (staple 1-4, 4-11) [I-764]
7	Ac-[αAllylPro]D[tBuAla][B5(7)]DDAAFQ[PyrS2][3Thi][Bta]H-NH2 (staple 1-4, 4-11) [I-772]
409	B3
6	Ac-[αAllylPro]D[tBuAla][B5(4)]DDAAFN[PyrS2″][Phe(2-Cl)][Bta][Leu(ol)] (staple 1-4, 4-11) [I-1080]

Molecular target: full-length beta-Catenin (Uniprot ID P35222) (Homo sapiens (Human)) (UniProt P35222)
Test: fluorescence polarization competition; full-length beta-catenin with 5FAM-TCF4(10-53) probe as competitor
Target sequence in this assay (P35222 whole entry): as above

IC50 [nM]	Binder
5	Ac-[αAllylPro]D[tBuAla][B5(7)]DDAAFQ[PyrS2][3Thi][Bta]Q-NH2 (staple 1-4, 4-11) [I-763]
5	Ac-[αAllylPro]D[tBuAla][B5(7)]DDAAFQ[PyrS2][3Thi][Bta]H-NH2 (staple 1-4, 4-11) [I-771]
14	Ac-[αAllylPro]D[tBuAla][B5(7)]DDAAFQ[PyrS2][3Thi][Bta]Q-NH2 (staple 1-4, 4-11) [I-764]
7	Ac-[αAllylPro]D[tBuAla][B5(7)]DDAAFQ[PyrS2][3Thi][Bta]H-NH2 (staple 1-4, 4-11) [I-772]
